According to article PMC3568533:
Values belong to the molecule of their own block, whether it stands above or below them.

Legend:
[1] = target: CYP3A4 K421A (N-terminus truncated) (human) (UniProt P08684); experiment: spectral titration
[2] = target: CYP3A4 K96A (N-terminus truncated) (human) (UniProt P08684); experiment: spectral titration
[3] = target: CYP3A4 wild-type (N-terminus truncated) (human) (UniProt P08684); experiment: spectral titration
[4] = target: CYP3A4 K421A (N-terminus truncated) (human) (UniProt P08684)
[5] = target: CYP3A4 K96A (N-terminus truncated) (human) (UniProt P08684)
[6] = target: CYP3A4 wild-type (N-terminus truncated) (human) (UniProt P08684)
[7] = target: CYP3A4 K421A (N-terminus truncated) (human) (UniProt P08684); remark: listed apart in the source
[8] = target: CYP3A4 K96A (N-terminus truncated) (human) (UniProt P08684); remark: listed apart in the source
[9] = target: CYP3A4 wild-type (N-terminus truncated) (human) (UniProt P08684); remark: listed apart in the source

Kd [1]: 287 nM
Kd [2]: 346 nM
Kd [3]: 140 nM
Molecule: reconstituted holo b5 (human cyt b5 made in-house) (from UniProt P00167 1-134) (natural protein)

Ratio of Vmax + b5/− b5, testosterone 6β-hydroxylation, CYP:CPR:cyt b5 1:2:1 [4]: 2
Ratio of Vmax + b5/− b5, testosterone 6β-hydroxylation, CYP:CPR:cyt b5 1:2:1 [5]: 1.3
Ratio of Vmax + b5/− b5, testosterone 6β-hydroxylation, CYP:CPR:cyt b5 1:2:1 [6]: 1.7
Molecule: Histidine-tagged recombinant human cyt b5 (commercial holo b5) (from UniProt P00167 1-134) (natural protein)

apparent K'm,CPR of TST 6β-hydroxylation at varying CPR concentrations [7]: 70 nM
apparent K'm,CPR of TST 6β-hydroxylation at varying CPR concentrations [8]: 91 nM
apparent K'm,CPR of TST 6β-hydroxylation at varying CPR concentrations [9]: 41 nM
B1: rat cytochrome P450 reductase (enzyme)
chain: MGDSHEDTSATMPEAVAEEVSLFSTTDMVLFSLIVGVLTYWFIFRKKKEEIPEFSKIQTTAPPVKESSFVEKMKKTGRNIIVFYGSQTGTAEEFANRLSKDAHRYGMRGMSADPEEYDLADLSSLPEIDKSLVVFCMATYGEGDPTDNAQDFYDWLQETDVDLTGVKFAVFGLGNKTYEHFNAMGKYVDQRLEQLGAQRIFELGLGDDDGNLEEDFITWREQFWPAVCEFFGVEATGEESSIRQYELVVHEDMDVAKVYTGEMGRLKSYENQKPPFDAKNPFLAAVTANRKLNQGTERHLMHLELDISDSKIRYESGDHVAVYPANDSALVNQIGEILGADLDVIMSLNNLDEESNKKHPFPCPTTYRTALTYYLDITNPPRTNVLYELAQYASEPSEQEHLHKMASSSGEGKELYLSWVVEARRHILAILQDYPSLRPPIDHLCELLPRLQARYYSIASSSKVHPNSVHICAVAVEYEAKSGRVNKGVATSWLRAKEPAGENGGRALVPMFVRKSQFRLPFKSTTPVIMVGPGTGIAPFMGFIQERAWLREQGKEVGETLLYYGCRRSDEDYLYREELARFHKDGALTQLNVAFSREQAHKVYVQHLLKRDREHLWKLIHEGGAHIYVCGDARNMAKDVQNTFYDIVAEFGPMEHTQAVDYVKKLMTKGRYSLDVWS
